Experiments:
[1] = system: T1, O=c1[nH]c(=O)c2[nH]c(=O)[nH]c2[nH]1; assay: cells, lysate or membranes; assay type: cell-based, Homo sapiens; conditions: Na+ urate and vitamin C could compete for SVCT1-mediated transport
T1 construct: full-length human SVCT1 WT, EGFP fusion (pEGFP-N1)

[2] = system: T2, O=c1[nH]c(=O)c2[nH]c(=O)[nH]c2[nH]1; assay: cells, lysate or membranes; assay type: cell-based, Mus musculus; conditions: Na+
T2 construct: mouse Svct1 WT, EGFP fusion

| Substance | Km [1] | Km [2] |
| --- | --- | --- |
| SVCT1 (Homo sapiens) | 1511 µM | – |
| Svct1 (Mus musculus) | – | 646.9 µM |

From PMC10011331, “Vitamin C transporter SVCT1 serves a physiological role as a urate importer: functional analyses and in vivo investigations” (Pflugers Archiv, 2023)
